Experimental data from US20250340595A1 (published 2025).
Starred links: 1 amine or outer side, 2 acyl side, 3 side chain; linkers in the order of their positions; H or OH if unused. Positions of bridges follow the written chain, without caps; N, C: chain ends. Non-standard residues stand in square brackets, D forms with d. No end group written: not given here. Fluorescein = fluorescein label on the C-terminal Lys side chain; TATA = O=C(CC[*:1])N1CN(C(=O)CC[*:2])CN(C(=O)CC[*:3])C1; TATB = O=C(C[*:1])N1CN(C(=O)C[*:2])CN(C(=O)C[*:3])C1; Tle = CC(C)(C)[C@H](N)C(=O)O; Sar = CNCC(=O)O

B1: BCY12452 (peptide)
peptide: ACREFFDTCGLAFIECA-NH2
modifications: linker 2-9-16 via TATA; N-terminus assumed
SMILES: CC[C@H](C)[C@@H]1NC(=O)[C@H](Cc2ccccc2)NC(=O)[C@H](C)NC(=O)[C@H](CC(C)C)NC(=O)CNC(=O)[C@@H]2CSCCC(=O)N3CN(CN(C3)C(=O)CCSC[C@@H](C(=O)N[C@@H](C)C(N)=O)NC(=O)[C@H](CCC(=O)O)NC1=O)C(=O)CCSC[C@H](NC(=O)[C@H](C)N)C(=O)N[C@@H](CCCNC(=N)N)C(=O)N[C@@H](CCC(=O)O)C(=O)N[C@@H](Cc1ccccc1)C(=O)N[C@@H](Cc1ccccc1)C(=O)N[C@@H](CC(=O)O)C(=O)N[C@@H]([C@@H](C)O)C(=O)N2

What follows are binders tested against T1, Human TfR1 protein (R&D Systems, 2474-TR or Acro Biosystems, CD1-H5243) (human, UniProt P02786 89-760) (assay: Alpha assay, competition with labelled transferrin).
T1 sequence (P02786 89-760 limits assumed): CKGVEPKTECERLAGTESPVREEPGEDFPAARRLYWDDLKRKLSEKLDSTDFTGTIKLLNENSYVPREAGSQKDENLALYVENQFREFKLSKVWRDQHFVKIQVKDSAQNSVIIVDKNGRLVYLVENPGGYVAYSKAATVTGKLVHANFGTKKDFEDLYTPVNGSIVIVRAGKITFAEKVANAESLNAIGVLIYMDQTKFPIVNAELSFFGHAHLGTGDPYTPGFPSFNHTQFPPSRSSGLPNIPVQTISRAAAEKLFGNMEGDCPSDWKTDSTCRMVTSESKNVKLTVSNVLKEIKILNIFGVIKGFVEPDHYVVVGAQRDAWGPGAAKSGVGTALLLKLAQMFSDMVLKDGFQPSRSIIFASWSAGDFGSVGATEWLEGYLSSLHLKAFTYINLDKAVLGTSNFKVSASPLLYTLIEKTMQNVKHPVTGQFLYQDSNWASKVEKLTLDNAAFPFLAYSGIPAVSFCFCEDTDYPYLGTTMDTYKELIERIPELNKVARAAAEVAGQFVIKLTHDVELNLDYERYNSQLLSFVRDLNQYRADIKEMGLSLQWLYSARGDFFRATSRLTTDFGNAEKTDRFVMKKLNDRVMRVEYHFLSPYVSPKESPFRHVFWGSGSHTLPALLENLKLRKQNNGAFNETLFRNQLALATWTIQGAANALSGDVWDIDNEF

**Q.** For ACLEACYDGVYWYSCA (3 Cys on TATA) [BCY12454], which IC50 is on record?
**A.** 0.893 µM

**Q.** ACALCNDWTLPWHHCA (3 Cys on TATA) [BCY12455] was tested. Which IC50 did it give?
**A.** 0.673 µM

**Q.** How did the IC50 turn out when B1 was run?
**A.** 1.22 µM

These binders were tested against T2, Recombinant human TfR1, His6-tagged (a.a. 89-760) (human, UniProt P02786 89-760) (assay: SPR, TfR1 on chip).
T2 construct: range 89-760; captured and coupled on an NTA chip for SPR; also called transferrin receptor 1; CD71
T2 sequence (P02786 89-760 limits assumed): as above

**Q.** For ACSADDWLGCISWCA (3 Cys on TATB) [BCY13983], which Kd is on record?
**A.** 450 µM

**Q.** How did the Kd turn out when ACSADDWLGCISYCA (linker 2-10-14 via TATB) [BCY15471] was run?
**A.** 263 µM

**Q.** How did the Kd turn out when ACPPDSWQGCISYCA (linker 2-10-14 via TATB) [BCY13989] was run?
**A.** 376 µM

**Q.** How did the Kd turn out when ACALCNDWTLPWHHCA (3 Cys on TATA) [BCY12455] was run?
**A.** 65.6 µM

**Q.** How did the Kd turn out when ACPQDAYLGCISWCA (linker 2-10-14 via TATB) [BCY15467] was run?
**A.** 29.5 µM

**Q.** How did the Kd turn out when ACSSDAYLGCISWCA (3 Cys on TATB) [BCY13986] was run?
**A.** 132 µM

What follows are binders tested against T3, Recombinant cynomolgus TfR1, His6-tagged (a.a. 89-760) (cynomolgus, UniProt H9EXL1 89-760 (rhesus entry)) (assay: SPR, TfR1 on chip).
T3 construct: range 89-760; same product number named for FP and SPR; also called Cyno TfR1; Acro Biosystems TFR-C524a
T3 sequence (chain, as listed by the source): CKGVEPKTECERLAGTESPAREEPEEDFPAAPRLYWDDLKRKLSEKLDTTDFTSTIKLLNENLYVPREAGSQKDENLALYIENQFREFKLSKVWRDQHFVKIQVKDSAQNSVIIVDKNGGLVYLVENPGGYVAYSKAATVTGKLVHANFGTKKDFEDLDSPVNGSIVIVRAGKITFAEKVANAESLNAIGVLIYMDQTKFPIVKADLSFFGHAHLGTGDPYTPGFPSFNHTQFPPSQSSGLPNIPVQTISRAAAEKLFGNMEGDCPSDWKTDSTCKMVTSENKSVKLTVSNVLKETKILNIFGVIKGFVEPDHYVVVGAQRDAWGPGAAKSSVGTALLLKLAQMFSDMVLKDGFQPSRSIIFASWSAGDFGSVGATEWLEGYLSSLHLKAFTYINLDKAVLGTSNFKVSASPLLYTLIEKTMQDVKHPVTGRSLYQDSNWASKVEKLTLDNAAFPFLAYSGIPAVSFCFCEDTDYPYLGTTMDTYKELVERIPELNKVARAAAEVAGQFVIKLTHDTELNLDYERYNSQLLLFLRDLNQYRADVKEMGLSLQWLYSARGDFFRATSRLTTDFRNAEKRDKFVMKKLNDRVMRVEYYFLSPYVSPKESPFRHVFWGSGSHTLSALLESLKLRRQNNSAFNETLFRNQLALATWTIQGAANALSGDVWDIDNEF

**Q.** Which Kd does the source give for ACSADDWLGCISWCA (3 Cys on TATB) [BCY13983] here?
**A.** 4580 µM

**Q.** How did the Kd turn out when ACSADDWLGCISYCA (linker 2-10-14 via TATB) [BCY15471] was run?
**A.** 4660 µM

**Q.** How did the Kd turn out when ACPPDSWQGCISYCA (linker 2-10-14 via TATB) [BCY13989] was run?
**A.** 3440 µM

**Q.** ACALCNDWTLPWHHCA (3 Cys on TATA) [BCY12455] was tested. Which Kd did it give?
**A.** 42.4 µM

**Q.** How did the Kd turn out when ACPQDAYLGCISWCA (linker 2-10-14 via TATB) [BCY15467] was run?
**A.** 1580 µM

**Q.** ACSSDAYLGCISWCA (3 Cys on TATB) [BCY13986] was tested. Which Kd did it give?
**A.** 2590 µM

Each binder was assayed against T1, Human TfR1 protein (R&D Systems, …) (assay: FP competition, competitor BCY15768).

**Q.** ACSADDWLGCISYCA (linker 2-10-14 via TATB) [BCY15471] was tested. Which Ki did it give?
**A.** 0.434 µM

**Q.** ACSPDAHLGCISYCEHQE (linker 2-10-14 via TATB (inferred)) [BCY17119] was tested. Which Ki did it give?
**A.** 0.16 µM

**Q.** Which Ki does the source give for ACPPDSWQGCISYCA (linker 2-10-14 via TATB) [BCY13989] here?
**A.** 0.565 µM

**Q.** How did the Ki turn out when ACPQDAYLGCISWCA (linker 2-10-14 via TATB) [BCY15467] was run?
**A.** 0.133 µM

**Q.** ACSPDAHLGC[Tle]SYCA (linker 2-10-14 via TATB) [BCY16051] was tested. Which Ki did it give?
**A.** 0.066 µM

These binders were tested against T3, Recombinant cynomolgus TfR1, … (assay: FP direct binding).

**Q.** For ACSPDAHLGCISYCAXXXXXXK (3 Cys on TATB; [Sar6]; C-terminal Lys carries fluorescein) [BCY15768], which Kd is on record?
**A.** 0.707 µM

**Q.** How did the Kd turn out when ACPPDSWQGCISYCA[Sar][Sar][Sar][Sar][Sar][Sar]K(Fluorescein) (linker 2-10-14 via TATB) [BCY14476] was run?
**A.** 3.65 µM

**Q.** ACSSDAYLGCISWCA[Sar][Sar][Sar][Sar][Sar][Sar]K(Fluorescein) (linker 2-10-14 via TATB) [BCY14475] was tested. Which Kd did it give?
**A.** 2.62 µM

**Q.** ACALCNDWTLPWHHCA[Sar][Sar][Sar][Sar][Sar][Sar]K(Fluorescein) (linker 2-5-15 via TATA) [BCY12652] was tested. Which Kd did it give?
**A.** 0.098 µM

Biological target: T2, Recombinant human TfR1, His6-tagged …
Assay: SPR, TfR1 on chip
Remark: another data set of the same source

**Q.** How did the Kd turn out when ACSPDAHLGCISYCEHQE (linker 2-10-14 via TATB (inferred)) [BCY17119] was run?
**A.** 0.212 µM

**Q.** Which Kd does the source give for ACAPDAHLGCISYCA[Sar][Sar][Sar][Sar][Sar][Sar]K(Fluorescein) (linker 2-10-14 via TATB) [BCY15769] here?
**A.** 0.07 µM

**Q.** For ACSPDAHLGC[Tle]SYCA (linker 2-10-14 via TATB) [BCY16051], which Kd is on record?
**A.** 0.025 µM

Biological target: T3, Recombinant cynomolgus TfR1, …
Assay: SPR, TfR1 on chip
Remark: another data set of the same source

**Q.** With ACSPDAHLGCISYCEHQE (linker 2-10-14 via TATB (inferred)) [BCY17119] as the binder, how does the Kd read?
**A.** 5.65 µM

**Q.** For ACPPDAHLGCISYCA (3 Cys on TATB) [BCY16048], which Kd is on record?
**A.** 1.28 µM

**Q.** How did the Kd turn out when ACSPDAHLGCISYCAXXXXXXK (3 Cys on TATB; [Sar6]; C-terminal Lys carries fluorescein) [BCY15768] was run?
**A.** 3.8 µM

**Q.** For ACSADAHLGCISYCA[Sar][Sar][Sar][Sar][Sar][Sar]K(Fluorescein) (linker 2-10-14 via TATB) [BCY15771], which Kd is on record?
**A.** 4 µM

**Q.** Which Kd does the source give for ACSPDAHAGCISYCAXXXXXXK (3 Cys on TATB; [Sar6]; C-terminal Lys carries fluorescein) [BCY15774] here?
**A.** 41 µM

**Q.** Which Kd does the source give for ACSPAAHLGCISYCA[Sar][Sar][Sar][Sar][Sar][Sar]K(Fluorescein) (linker 2-10-14 via TATB) [BCY15772] here?
**A.** 99 µM

**Q.** With ACAPDAHLGCISYCA[Sar][Sar][Sar][Sar][Sar][Sar]K(Fluorescein) (linker 2-10-14 via TATB) [BCY15769] as the binder, how does the Kd read?
**A.** 2.2 µM

**Q.** With ACSPDAALGCISYCA[Sar][Sar][Sar][Sar][Sar][Sar]K(Fluorescein) (linker 2-10-14 via TATB) [BCY15773] as the binder, how does the Kd read?
**A.** 2.6 µM

**Q.** ACPPDSWQGCISYCA (linker 2-10-14 via TATB) [BCY13989] was tested. Which Kd did it give?
**A.** ~11 µM

**Q.** ACSPDAHLGC[Tle]SYCA (linker 2-10-14 via TATB) [BCY16051] was tested. Which Kd did it give?
**A.** 1.82 µM

Biological target: T1, Human TfR1 protein (R&D Systems, …)
Assay: FP competition, competitor BCY15768
Remark: another data set of the same source

**Q.** Which Ki does the source give for ACSADDWLGCISYCA (linker 2-10-14 via TATB) [BCY15471] here?
**A.** 0.434 µM

**Q.** ACSPDAHLGCISYCEHQE (linker 2-10-14 via TATB (inferred)) [BCY17119] was tested. Which Ki did it give?
**A.** 0.16 µM

**Q.** For ACPPDSWQGCISYCA (linker 2-10-14 via TATB) [BCY13989], which Ki is on record?
**A.** 0.565 µM

**Q.** Which Ki does the source give for ACSPDAHLGC[Tle]SYCA (linker 2-10-14 via TATB) [BCY16051] here?
**A.** 0.066 µM

What follows are binders tested against T3, Recombinant cynomolgus TfR1, … (assay: FP competition, competitor BCY15768).

**Q.** For ACSADDWLGCISYCA (linker 2-10-14 via TATB) [BCY15471], which Ki is on record?
**A.** 4.66 µM

**Q.** How did the Ki turn out when ACPPDAHLGCISYCA (3 Cys on TATB) [BCY16048] was run?
**A.** 0.621 µM

**Q.** How did the Ki turn out when ACPPDSWQGCISYCA (linker 2-10-14 via TATB) [BCY13989] was run?
**A.** 3.44 µM

**Q.** ACSPDAHLGC[Tle]SYCA (linker 2-10-14 via TATB) [BCY16051] was tested. Which Ki did it give?
**A.** 0.482 µM

These binders were tested against T3, Recombinant cynomolgus TfR1, … (assay: FP competition table (Table 6)).

**Q.** For ACSPDAHLGCISYCAXXXXXXK (3 Cys on TATB; [Sar6]; C-terminal Lys carries fluorescein) [BCY15768], which Ki is on record?
**A.** 1.07 µM

**Q.** Which Ki does the source give for ACSADAHLGCISYCA[Sar][Sar][Sar][Sar][Sar][Sar]K(Fluorescein) (linker 2-10-14 via TATB) [BCY15771] here?
**A.** 1.06 µM

**Q.** With ACSPDAHAGCISYCAXXXXXXK (3 Cys on TATB; [Sar6]; C-terminal Lys carries fluorescein) [BCY15774] as the binder, how does the Ki read?
**A.** 3.47 µM

**Q.** How did the Ki turn out when ACSPAAHLGCISYCA[Sar][Sar][Sar][Sar][Sar][Sar]K(Fluorescein) (linker 2-10-14 via TATB) [BCY15772] was run?
**A.** 7.08 µM

**Q.** With ACAPDAHLGCISYCA[Sar][Sar][Sar][Sar][Sar][Sar]K(Fluorescein) (linker 2-10-14 via TATB) [BCY15769] as the binder, how does the Ki read?
**A.** 1.12 µM

**Q.** With ACSPDAHLGCIAYCA[Sar][Sar][Sar][Sar][Sar][Sar]K(Fluorescein) (linker 2-10-14 via TATB) [BCY15777] as the binder, how does the Ki read?
**A.** 2.91 µM

**Q.** How did the Ki turn out when ACSPDAHLGCISACA[Sar][Sar][Sar][Sar][Sar][Sar]K(Fluorescein) (linker 2-10-14 via TATB) [BCY15770] was run?
**A.** 4.04 µM

**Q.** With ACSPDAALGCISYCA[Sar][Sar][Sar][Sar][Sar][Sar]K(Fluorescein) (linker 2-10-14 via TATB) [BCY15773] as the binder, how does the Ki read?
**A.** 2.3 µM
